Patent US20080003218A1

Target: FcεRI-bound IgE (human IgE loaded on CHO 3D10 cells expressing FcεRI alpha chain) (human) (UniProt P01854)
Test: FACS on IgE-loaded CHO 3D10 cells (FIG. 4)

Chain of FcεRI-bound IgE (human IgE loaded on CHO 3D10 cells expressing FcεRI alpha chain) (human) (P01854 whole entry, chain 1 of 2): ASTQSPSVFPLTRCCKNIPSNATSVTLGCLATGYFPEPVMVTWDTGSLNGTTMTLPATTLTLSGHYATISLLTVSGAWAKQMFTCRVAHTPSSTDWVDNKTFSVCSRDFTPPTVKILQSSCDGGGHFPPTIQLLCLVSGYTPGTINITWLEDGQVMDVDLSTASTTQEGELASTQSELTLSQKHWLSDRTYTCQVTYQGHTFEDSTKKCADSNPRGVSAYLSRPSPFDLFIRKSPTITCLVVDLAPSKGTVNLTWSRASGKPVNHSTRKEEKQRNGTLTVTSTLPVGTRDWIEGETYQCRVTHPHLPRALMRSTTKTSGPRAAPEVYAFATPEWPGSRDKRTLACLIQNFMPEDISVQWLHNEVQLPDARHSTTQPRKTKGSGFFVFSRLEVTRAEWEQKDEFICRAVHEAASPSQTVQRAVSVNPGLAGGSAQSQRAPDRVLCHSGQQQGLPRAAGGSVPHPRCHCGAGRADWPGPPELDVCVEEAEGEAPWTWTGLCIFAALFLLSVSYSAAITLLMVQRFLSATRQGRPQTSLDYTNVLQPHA
Chain of FcεRI-bound IgE (human IgE loaded on CHO 3D10 cells expressing FcεRI alpha chain) (human) (P12319 26-257, chain 2 of 2, further chain): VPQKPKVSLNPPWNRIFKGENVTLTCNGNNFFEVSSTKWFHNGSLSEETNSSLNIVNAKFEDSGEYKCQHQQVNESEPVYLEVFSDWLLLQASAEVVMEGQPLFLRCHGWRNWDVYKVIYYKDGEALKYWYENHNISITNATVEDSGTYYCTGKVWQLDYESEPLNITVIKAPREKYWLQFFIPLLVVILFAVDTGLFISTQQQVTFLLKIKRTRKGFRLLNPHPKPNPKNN

In order of rising mean channel fluorescence at 0.1 µg/ml (mean channel fluorescence):
1. humanized mAb 4D5 (human IgG1 control antibody)  4.7
2. murine anti-human IgE monoclonal antibody MaE11  6.4
3. MOPC21 (murine IgG1 control antibody)  7.3
